Results from article PMC11711466, “Reconstitution of human DNA licensing and the structural and functional analysis of key intermediates” (Nature Communications, 2024).

T1: human MCM6 (human, UniProt Q14566 1-821)
T1 construct: Subunit of m6; also called hMCM6; source: HEK293-F, co-expressed hMCM2-7; in lysate (co-purification) and purified as hMCM2-7 (Ni-NTA, StrepTrapXT)
T1 sequence (looked up): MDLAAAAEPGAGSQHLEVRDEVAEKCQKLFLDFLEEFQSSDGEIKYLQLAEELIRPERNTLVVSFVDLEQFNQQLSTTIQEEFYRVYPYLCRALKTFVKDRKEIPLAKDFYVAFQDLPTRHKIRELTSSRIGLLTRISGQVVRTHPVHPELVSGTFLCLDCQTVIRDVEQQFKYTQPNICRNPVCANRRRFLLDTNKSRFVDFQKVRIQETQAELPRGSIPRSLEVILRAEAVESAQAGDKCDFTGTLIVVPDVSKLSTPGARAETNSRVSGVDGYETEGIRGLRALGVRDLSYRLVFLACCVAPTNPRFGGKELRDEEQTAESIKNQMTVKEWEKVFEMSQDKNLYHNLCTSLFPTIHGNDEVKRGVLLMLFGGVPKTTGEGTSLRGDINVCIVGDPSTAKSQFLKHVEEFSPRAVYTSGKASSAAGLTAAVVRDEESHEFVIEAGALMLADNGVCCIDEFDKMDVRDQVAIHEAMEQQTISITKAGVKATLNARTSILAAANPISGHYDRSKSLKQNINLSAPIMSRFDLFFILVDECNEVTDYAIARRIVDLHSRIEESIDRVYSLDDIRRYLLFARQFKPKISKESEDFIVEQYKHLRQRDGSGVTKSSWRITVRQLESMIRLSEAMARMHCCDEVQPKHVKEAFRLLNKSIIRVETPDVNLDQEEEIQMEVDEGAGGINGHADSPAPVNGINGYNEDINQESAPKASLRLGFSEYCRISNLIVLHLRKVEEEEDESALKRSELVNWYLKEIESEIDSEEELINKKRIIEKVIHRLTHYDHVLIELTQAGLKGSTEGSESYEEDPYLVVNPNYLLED

T2: human ORC1 (human, UniProt Q13415 1-861)
T2 construct: human origin recognition complex subunit 1 (hORC1); Subunit of m1; also called hORC1; hORC1 N-tag; source: S. cerevisiae YC658, co-overexpressed with hORC2-5; in lysate (co-purification) and purified as hORC1-5 (StrepXT, heparin, glycerol gradient); not shown: Twin Strep-tag, N-terminal, kept
T2 sequence (looked up): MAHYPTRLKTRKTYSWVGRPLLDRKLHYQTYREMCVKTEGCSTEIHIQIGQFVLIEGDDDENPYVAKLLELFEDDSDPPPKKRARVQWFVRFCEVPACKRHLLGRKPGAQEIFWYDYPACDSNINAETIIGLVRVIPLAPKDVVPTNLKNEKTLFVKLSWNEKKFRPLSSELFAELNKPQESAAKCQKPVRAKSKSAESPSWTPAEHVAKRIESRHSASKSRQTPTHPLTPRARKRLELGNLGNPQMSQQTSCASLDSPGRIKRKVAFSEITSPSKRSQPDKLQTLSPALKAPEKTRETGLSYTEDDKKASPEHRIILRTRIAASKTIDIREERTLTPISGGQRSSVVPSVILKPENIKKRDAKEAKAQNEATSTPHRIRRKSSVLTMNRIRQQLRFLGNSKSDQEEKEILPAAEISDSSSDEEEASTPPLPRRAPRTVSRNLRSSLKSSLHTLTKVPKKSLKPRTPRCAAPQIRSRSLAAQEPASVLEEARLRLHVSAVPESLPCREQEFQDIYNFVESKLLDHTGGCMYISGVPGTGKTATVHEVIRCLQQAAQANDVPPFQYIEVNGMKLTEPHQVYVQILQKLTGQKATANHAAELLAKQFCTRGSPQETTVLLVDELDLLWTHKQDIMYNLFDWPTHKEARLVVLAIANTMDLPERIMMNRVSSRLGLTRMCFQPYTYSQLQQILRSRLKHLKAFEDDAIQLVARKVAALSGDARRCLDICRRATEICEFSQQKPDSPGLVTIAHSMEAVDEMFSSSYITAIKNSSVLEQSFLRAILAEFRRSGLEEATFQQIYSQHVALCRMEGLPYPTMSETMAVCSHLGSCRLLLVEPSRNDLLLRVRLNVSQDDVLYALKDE

T3: human MCM3 (human, UniProt P25205 1-808)
T3 construct: Subunit of m6; also called hMCM3; source: HEK293-F, co-expressed hMCM2-7; in lysate (co-purification) and purified as hMCM2-7 (Ni-NTA, StrepTrapXT)
T3 sequence (looked up): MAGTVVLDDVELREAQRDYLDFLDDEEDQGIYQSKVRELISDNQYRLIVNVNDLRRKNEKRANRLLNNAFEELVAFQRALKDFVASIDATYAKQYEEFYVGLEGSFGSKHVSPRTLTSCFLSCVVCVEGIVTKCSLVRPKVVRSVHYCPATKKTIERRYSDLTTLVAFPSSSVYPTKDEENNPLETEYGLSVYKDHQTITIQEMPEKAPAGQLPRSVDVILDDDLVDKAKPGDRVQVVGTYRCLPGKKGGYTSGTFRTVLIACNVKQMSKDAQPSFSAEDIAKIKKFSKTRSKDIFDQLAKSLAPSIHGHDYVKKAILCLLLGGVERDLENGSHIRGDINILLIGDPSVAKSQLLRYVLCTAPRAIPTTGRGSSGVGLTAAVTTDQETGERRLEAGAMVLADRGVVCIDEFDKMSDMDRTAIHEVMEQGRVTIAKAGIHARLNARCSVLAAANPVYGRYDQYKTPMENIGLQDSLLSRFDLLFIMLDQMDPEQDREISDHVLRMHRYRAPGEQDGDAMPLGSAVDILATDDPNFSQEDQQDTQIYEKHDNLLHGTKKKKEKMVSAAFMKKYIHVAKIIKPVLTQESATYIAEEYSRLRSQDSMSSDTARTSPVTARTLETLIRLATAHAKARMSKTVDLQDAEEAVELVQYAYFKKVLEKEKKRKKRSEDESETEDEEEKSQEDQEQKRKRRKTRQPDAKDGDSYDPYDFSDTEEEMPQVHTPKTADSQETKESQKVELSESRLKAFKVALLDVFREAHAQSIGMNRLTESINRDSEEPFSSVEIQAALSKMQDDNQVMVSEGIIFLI


Columns and labels:
human MCM6 = target: T1, human MCM6; experiment: cryo-EM structure; hOCCM from a low-salt washed pre-RC reaction with ATPγS, eluted from the DNA beads with DNaseI; 6.09 Å; conditions: both partners purified
human ORC1 = target: T2, human ORC1; experiment: affinity co-purification; hORC1-5 co-overexpressed in G1-arrested budding yeast; StrepXT column on the N-terminal Strep tag of hORC1, then heparin column and glycerol gradient; conditions: partners not purified
human MCM2 = target: T4, human MCM2 (human, UniProt P49736 1-904); experiment: cryo-EM structure; hOCCM from a low-salt washed pre-RC reaction with ATPγS, eluted from the DNA beads with DNaseI; 6.09 Å; conditions: both partners purified
T4 construct: human MCM2 (hMCM2); Subunit of m6; also called hMCM2; source: HEK293-F, co-expressed hMCM2-7; in lysate (co-purification) and purified as hMCM2-7 (Ni-NTA, StrepTrapXT); not shown: twin Strep, N-terminal, kept

human MCM3 = target: T3, human MCM3; experiment: as above; conditions: both partners purified

T4 sequence (P49736 whole entry): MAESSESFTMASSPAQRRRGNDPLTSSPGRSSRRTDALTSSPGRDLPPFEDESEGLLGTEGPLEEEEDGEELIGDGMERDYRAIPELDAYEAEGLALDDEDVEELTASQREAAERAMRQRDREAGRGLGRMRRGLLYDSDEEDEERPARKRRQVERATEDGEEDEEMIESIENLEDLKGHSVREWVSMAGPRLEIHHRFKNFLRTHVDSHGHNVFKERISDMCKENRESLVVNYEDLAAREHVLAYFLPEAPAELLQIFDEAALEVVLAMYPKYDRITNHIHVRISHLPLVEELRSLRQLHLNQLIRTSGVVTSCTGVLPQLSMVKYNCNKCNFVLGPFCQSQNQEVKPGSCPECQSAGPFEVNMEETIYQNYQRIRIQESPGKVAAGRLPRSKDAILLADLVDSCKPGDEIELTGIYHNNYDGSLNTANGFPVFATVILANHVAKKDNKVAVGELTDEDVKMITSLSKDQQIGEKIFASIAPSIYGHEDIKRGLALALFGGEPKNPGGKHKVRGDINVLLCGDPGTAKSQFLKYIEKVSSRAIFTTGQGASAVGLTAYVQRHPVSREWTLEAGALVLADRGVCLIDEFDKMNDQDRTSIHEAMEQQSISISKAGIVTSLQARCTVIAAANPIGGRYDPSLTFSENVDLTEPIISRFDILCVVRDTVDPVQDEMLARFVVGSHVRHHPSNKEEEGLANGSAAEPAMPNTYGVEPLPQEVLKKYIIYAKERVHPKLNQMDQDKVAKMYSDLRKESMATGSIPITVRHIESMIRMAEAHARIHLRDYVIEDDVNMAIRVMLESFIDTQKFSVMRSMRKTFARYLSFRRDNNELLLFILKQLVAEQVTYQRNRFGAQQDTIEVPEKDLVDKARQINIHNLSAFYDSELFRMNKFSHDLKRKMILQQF

Row | binding result (human MCM6) | binding result (human ORC1) | binding result (human MCM2) | binding result (human MCM3) | Binder
1 | binds | binds |  |  | human ORC5 (natural protein, UniProt O43913 1-435, looked up, human origin recognition complex subunit 5 (hORC5); Subunit of m1; also called hORC5; source: S. cerevisiae YC658, co-overexpressed with the other hORC1-5 subunits; in lysate (co-purification) and purified as hORC1-5) MPHLENVVLCRESQVSILQSLFGERHHFSFPSIFIYGHTASGKTYVTQTLLKTLELPHVFVNCVECFTLRLLLEQILNKLNHLSSSEDGCSTEITCETFNDFVRLFKQVTTAENLKDQTVYIVLDKAEYLRDMEANLLPGFLRLQELADRNVTVLFLSEIVWEKFRPNTGCFEPFVLYFPDYSIGNLQKILSHDHPPEYSADFYAAYINILLGVFYTVCRDLKELRHLAVLNFPKYCEPVVKGEASERDTRKLWRNIEPHLKKAMQTVYLREISSSQWEKLQKDDTDPGQLKGLSAHTHVELPYYSKFILIAAYLASYNPARTDKRFFLKHHGKIKKTNFLKKHEKTSNHLLGPKPFPLDRLLAILYSIVDSRVAPTANIFSQITSLVTLQLLTLVGHDDQLDGPKYKCTVSLDFIRAIARTVNFDIIKYLYDFL
2 | binds | binds |  |  | human ORC4 (natural protein, UniProt O43929 1-436, looked up, human origin recognition complex subunit 4 (hORC4); Subunit of m1; also called hORC4; source: S. cerevisiae YC658, co-overexpressed with the other hORC1-5 subunits; in lysate (co-purification) and purified as hORC1-5) MSSRKSKSNSLIHTECLSQVQRILRERFCRQSPHSNLFGVQVQYKHLSELLKRTALHGESNSVLIIGPRGSGKTMLINHALKELMEIEEVSENVLQVHLNGLLQINDKIALKEITRQLNLENVVGDKVFGSFAENLSFLLEALKKGDRTSSCPVIFILDEFDLFAHHKNQTLLYNLFDISQSAQTPIAVIGLTCRLDILELLEKRVKSRFSHRQIHLMNSFGFPQYVKIFKEQLSLPAEFPDKVFAEKWNENVQYLSEDRSVQEVLQKHFNISKNLRSLHMLLMLALNRVTASHPFMTAVDLMEASQLCSMDSKANIVHGLSVLEICLIIAMKHLNDIYEEEPFNFQMVYNEFQKFVQRKAHSVYNFEKPVVMKAFEHLQQLELIKPMERTSGNSQREYQLMKLLLDNTQIMNALQKYPNCPTDVRQWATSSLSWL
3 |  | binds | binds |  | human ORC3 (natural protein, UniProt Q9UBD5 1-711, looked up, human origin recognition complex subunit 3 (hORC3); Subunit of m1; also called hORC3; source: S. cerevisiae YC658, co-overexpressed with the other hORC1-5 subunits; in lysate (co-purification) and purified as hORC1-5) MATSSMSKGCFVFKPNSKKRKISLPIEDYFNKGKNEPEDSKLRFETYQLIWQQMKSENERLQEELNKNLFDNLIEFLQKSHSGFQKNSRDLGGQIKLREIPTAALVLGVNVTDHDLTFGSLTEALQNNVTPYVVSLQAKDCPDMKHFLQKLISQLMDCCVDIKSKEEESVHVTQRKTHYSMDSLSSWYMTVTQKTDPKMLSKKRTTSSQWQSPPVVVILKDMESFATKVLQDFIIISSQHLHEFPLILIFGIATSPIIIHRLLPHAVSSLLCIELFQSLSCKEHLTTVLDKLLLTTQFPFKINEKVLQVLTNIFLYHDFSVQNFIKGLQLSLLEHFYSQPLSVLCCNLPEAKRRINFLSNNQCENIRRLPSFRRYVEKQASEKQVALLTNERYLKEETQLLLENLHVYHMNYFLVLRCLHKFTSSLPKYPLGRQIRELYCTCLEKNIWDSEEYASVLQLLRMLAKDELMTILEKCFKVFKSYCENHLGSTAKRIEEFLAQFQSLDETKEEEDASGSQPKGLQKTDLYHLQKSLLEMKELRRSKKQTKFEVLRENVVNFIDCLVREYLLPPETQPLHEVVYFSAAHALREHLNAAPRIALHTALNNPYYYLKNEALKSEEGCIPNIAPDICIAYKLHLECSRLINLVDWSEAFATVVTAAEKMDANSATSEEMNEIIHARFIRAVSELELLGFIKPTKQKTDHVARLTWGGC
4 |  | binds |  | binds | human ORC2 (natural protein, UniProt Q13416 1-577, looked up, human origin recognition complex subunit 2 (hORC2); Subunit of m1; also called hORC2; source: S. cerevisiae YC658, co-overexpressed with the other hORC1-5 subunits; in lysate (co-purification) and purified as hORC1-5) MSKPELKEDKMLEVHFVGDDDVLNHILDREGGAKLKKERAQLLVNPKKIIKKPEYDLEEDDQEVLKDQNYVEIMGRDVQESLKNGSATGGGNKVYSFQNRKHSEKMAKLASELAKTPQKSVSFSLKNDPEITINVPQSSKGHSASDKVQPKNNDKSEFLSTAPRSLRKRLIVPRSHSDSESEYSASNSEDDEGVAQEHEEDTNAVIFSQKIQAQNRVVSAPVGKETPSKRMKRDKTSDLVEEYFEAHSSSKVLTSDRTLQKLKRAKLDQQTLRNLLSKVSPSFSAELKQLNQQYEKLFHKWMLQLHLGFNIVLYGLGSKRDLLERFRTTMLQDSIHVVINGFFPGISVKSVLNSITEEVLDHMGTFRSILDQLDWIVNKFKEDSSLELFLLIHNLDSQMLRGEKSQQIIGQLSSLHNIYLIASIDHLNAPLMWDHAKQSLFNWLWYETTTYSPYTEETSYENSLLVKQSGSLPLSSLTHVLRSLTPNARGIFRLLIKYQLDNQDNPSYIGLSFQDFYQQCREAFLVNSDLTLRAQLTEFRDHKLIRTKKGTDGVEYLLIPVDNGTLTDFLEKEEEEA
